Measured values published in patent publication US20240317868A1 (Boehringer Ingelheim, published 2024).

T1: human IL1RAP (human, UniProt Q9NPH3 21-367, limits assumed, biotinylated in the ELISA screens (site not stated))
T1 construct: also called huIL1RAP; IL1RAP antigen
T1 sequence (looked up): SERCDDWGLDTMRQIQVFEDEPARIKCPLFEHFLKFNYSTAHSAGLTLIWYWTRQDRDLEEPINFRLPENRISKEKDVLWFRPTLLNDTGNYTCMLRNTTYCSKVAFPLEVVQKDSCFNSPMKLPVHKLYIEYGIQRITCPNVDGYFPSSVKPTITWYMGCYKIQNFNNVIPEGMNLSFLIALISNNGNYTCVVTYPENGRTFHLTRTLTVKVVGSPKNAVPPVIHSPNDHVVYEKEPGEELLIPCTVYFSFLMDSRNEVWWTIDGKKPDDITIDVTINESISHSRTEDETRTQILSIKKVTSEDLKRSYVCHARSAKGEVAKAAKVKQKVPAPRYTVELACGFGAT


molecular target: T1, human IL1RAP; experiment: ELISA of point mutant IgG (heavy chain mutant with the parental chimeric light chain, CHO-E expression), one bar each, concentration not given
Source text: For light chain 13 variants (T25A, E27Q, N28S, N30S, Y50A, K52S, T53Y, A55Q, E56S, H90Q, H91S, G93S and S95P) and 19 heavy chain variants (Y27G, I28T, L30S, T31S, W33Y, M34I, N35S, Q50R, F521, A541, S55L, D56G, S57I, T58A, N61A, E62Q, M63K, K65Q and D66G) were generated separately in the vector pTT5 (See FIG. 3A/B). The light chain mutants were paired with the parental chimeric heavy chain and heavy chain mutants were paired with parental chimeric light chain for expression analysis in CHO-E cells for 7 days. The resulting variants were evaluated for binding in ELISA experiments and compared to the parental chimeric IgG which has mouse variable region but human constant regions. For light chain variants, six point mutants VK-T25A, E27Q, N28S, N30S, K52S and T53Y depicted binding similar to chimeric IgG (+10% control; FIG. 3A) while for heavy chain […] point mutants VH-I28T, L30S, M34I, N35S, D56G, T58A, N61A, E62Q, M63K, K65Q and D66G depicted similar binding as chimeric IgG (+10% control; FIG. 3B).

Row | binding result | Binder
1 | binds | GO11 chimeric IgG, heavy chain point mutant VH-D56G (antibody, V domains shown, Heavy chain mutant paired with the parental chimeric light chain; IgG backbone, expressed in CHO-E) VH: QVHLQQSGPELVRPGTSVKISCEASGYIFLTYWMNWVKQRPGQGLEWIGQIFPASGSTYYNEMFKDKARFTVDKSSSTAYMQFSSLTSEDTAVYFCARSGPYSYYAGGYALDYWGQGTSVTVSS VL: DIQMTQSPASLSASVGETVTITCRTSENINSYLAWYQQKQGKSPQLLVHYAKTLAEGVPSRFSGSGSGTQFSLKINSLKPEDFGSYYCQHHYGTSLTFGAGTKLELK
2 | binds | VH-Y27G (antibody, V domains shown, germlining point mutant, paired with the parental chimeric light chain; also called GO11 chimeric IgG, heavy chain point mutant Y27G; copies: 2 + 2) VH: QVHLQQSGPELVRPGTSVKISCEASGGIFLTYWMNWVKQRPGQGLEWIGQIFPASDSTYYNEMFKDKARFTVDKSSSTAYMQFSSLTSEDTAVYFCARSGPYSYYAGGYALDYWGQGTSVTVSS VL: DIQMTQSPASLSASVGETVTITCRTSENINSYLAWYQQKQGKSPQLLVHYAKTLAEGVPSRFSGSGSGTQFSLKINSLKPEDFGSYYCQHHYGTSLTFGAGTKLELKR
3 | binds | GO11 chimeric IgG, heavy chain point mutant VH-L30S (antibody, V domains shown, Heavy chain mutant paired with the parental chimeric light chain; IgG backbone, expressed in CHO-E) VH: QVHLQQSGPELVRPGTSVKISCEASGYIFSTYWMNWVKQRPGQGLEWIGQIFPASDSTYYNEMFKDKARFTVDKSSSTAYMQFSSLTSEDTAVYFCARSGPYSYYAGGYALDYWGQGTSVTVSS VL: DIQMTQSPASLSASVGETVTITCRTSENINSYLAWYQQKQGKSPQLLVHYAKTLAEGVPSRFSGSGSGTQFSLKINSLKPEDFGSYYCQHHYGTSLTFGAGTKLELK
4 | binds | VH-F52I (antibody, V domains shown, germlining point mutant, paired with the parental chimeric light chain; also called GO11 chimeric IgG, heavy chain point mutant F52I; copies: 2 + 2) VH: QVHLQQSGPELVRPGTSVKISCEASGYIFLTYWMNWVKQRPGQGLEWIGQIIPASDSTYYNEMFKDKARFTVDKSSSTAYMQFSSLTSEDTAVYFCARSGPYSYYAGGYALDYWGQGTSVTVSS VL: DIQMTQSPASLSASVGETVTITCRTSENINSYLAWYQQKQGKSPQLLVHYAKTLAEGVPSRFSGSGSGTQFSLKINSLKPEDFGSYYCQHHYGTSLTFGAGTKLELKR
5 | binds | GO11 chimeric IgG, heavy chain point mutant VH-N61A (antibody, V domains shown, Heavy chain mutant paired with the parental chimeric light chain; IgG backbone, expressed in CHO-E) VH: QVHLQQSGPELVRPGTSVKISCEASGYIFLTYWMNWVKQRPGQGLEWIGQIFPASDSTYYAEMFKDKARFTVDKSSSTAYMQFSSLTSEDTAVYFCARSGPYSYYAGGYALDYWGQGTSVTVSS VL: DIQMTQSPASLSASVGETVTITCRTSENINSYLAWYQQKQGKSPQLLVHYAKTLAEGVPSRFSGSGSGTQFSLKINSLKPEDFGSYYCQHHYGTSLTFGAGTKLELK
6 | binds | VH-S57I (antibody, V domains shown, germlining point mutant, paired with the parental chimeric light chain; also called GO11 chimeric IgG, heavy chain point mutant S57I; copies: 2 + 2) VH: QVHLQQSGPELVRPGTSVKISCEASGYIFLTYWMNWVKQRPGQGLEWIGQIFPASDITYYNEMFKDKARFTVDKSSSTAYMQFSSLTSEDTAVYFCARSGPYSYYAGGYALDYWGQGTSVTVSS VL: DIQMTQSPASLSASVGETVTITCRTSENINSYLAWYQQKQGKSPQLLVHYAKTLAEGVPSRFSGSGSGTQFSLKINSLKPEDFGSYYCQHHYGTSLTFGAGTKLELKR
7 | binds | GO11 chimeric IgG, heavy chain point mutant VH-M63K (antibody, V domains shown, Heavy chain mutant paired with the parental chimeric light chain; IgG backbone, expressed in CHO-E) VH: QVHLQQSGPELVRPGTSVKISCEASGYIFLTYWMNWVKQRPGQGLEWIGQIFPASDSTYYNEKFKDKARFTVDKSSSTAYMQFSSLTSEDTAVYFCARSGPYSYYAGGYALDYWGQGTSVTVSS VL: DIQMTQSPASLSASVGETVTITCRTSENINSYLAWYQQKQGKSPQLLVHYAKTLAEGVPSRFSGSGSGTQFSLKINSLKPEDFGSYYCQHHYGTSLTFGAGTKLELK
8 | binds | GO11 chimeric IgG, heavy chain point mutant VH-K65Q (antibody, V domains shown, Heavy chain mutant paired with the parental chimeric light chain; IgG backbone, expressed in CHO-E) VH: QVHLQQSGPELVRPGTSVKISCEASGYIFLTYWMNWVKQRPGQGLEWIGQIFPASDSTYYNEMFQDKARFTVDKSSSTAYMQFSSLTSEDTAVYFCARSGPYSYYAGGYALDYWGQGTSVTVSS VL: DIQMTQSPASLSASVGETVTITCRTSENINSYLAWYQQKQGKSPQLLVHYAKTLAEGVPSRFSGSGSGTQFSLKINSLKPEDFGSYYCQHHYGTSLTFGAGTKLELK
9 | binds | GO11 chimeric IgG, heavy chain point mutant VH-E62Q (antibody, V domains shown, Heavy chain mutant paired with the parental chimeric light chain; IgG backbone, expressed in CHO-E) VH: QVHLQQSGPELVRPGTSVKISCEASGYIFLTYWMNWVKQRPGQGLEWIGQIFPASDSTYYNQMFKDKARFTVDKSSSTAYMQFSSLTSEDTAVYFCARSGPYSYYAGGYALDYWGQGTSVTVSS VL: DIQMTQSPASLSASVGETVTITCRTSENINSYLAWYQQKQGKSPQLLVHYAKTLAEGVPSRFSGSGSGTQFSLKINSLKPEDFGSYYCQHHYGTSLTFGAGTKLELK
10 | binds | GO11 chimeric IgG, heavy chain point mutant VH-N35S (antibody, V domains shown, Heavy chain mutant paired with the parental chimeric light chain; IgG backbone, expressed in CHO-E) VH: QVHLQQSGPELVRPGTSVKISCEASGYIFLTYWMSWVKQRPGQGLEWIGQIFPASDSTYYNEMFKDKARFTVDKSSSTAYMQFSSLTSEDTAVYFCARSGPYSYYAGGYALDYWGQGTSVTVSS VL: DIQMTQSPASLSASVGETVTITCRTSENINSYLAWYQQKQGKSPQLLVHYAKTLAEGVPSRFSGSGSGTQFSLKINSLKPEDFGSYYCQHHYGTSLTFGAGTKLELK
11 | binds | VH-W33Y (antibody, V domains shown, germlining point mutant, paired with the parental chimeric light chain; also called GO11 chimeric IgG, heavy chain point mutant W33Y; copies: 2 + 2) VH: QVHLQQSGPELVRPGTSVKISCEASGYIFLTYYMNWVKQRPGQGLEWIGQIFPASDSTYYNEMFKDKARFTVDKSSSTAYMQFSSLTSEDTAVYFCARSGPYSYYAGGYALDYWGQGTSVTVSS VL: DIQMTQSPASLSASVGETVTITCRTSENINSYLAWYQQKQGKSPQLLVHYAKTLAEGVPSRFSGSGSGTQFSLKINSLKPEDFGSYYCQHHYGTSLTFGAGTKLELKR
12 | binds | VH-Q50R (antibody, V domains shown, germlining point mutant, paired with the parental chimeric light chain; also called GO11 chimeric IgG, heavy chain point mutant Q50R; copies: 2 + 2) VH: QVHLQQSGPELVRPGTSVKISCEASGYIFLTYWMNWVKQRPGQGLEWIGRIFPASDSTYYNEMFKDKARFTVDKSSSTAYMQFSSLTSEDTAVYFCARSGPYSYYAGGYALDYWGQGTSVTVSS VL: DIQMTQSPASLSASVGETVTITCRTSENINSYLAWYQQKQGKSPQLLVHYAKTLAEGVPSRFSGSGSGTQFSLKINSLKPEDFGSYYCQHHYGTSLTFGAGTKLELKR
13 | no binding | VH-S55L (antibody, V domains shown, germlining point mutant, paired with the parental chimeric light chain; also called GO11 chimeric IgG, heavy chain point mutant S55L; copies: 2 + 2) VH: QVHLQQSGPELVRPGTSVKISCEASGYIFLTYWMNWVKQRPGQGLEWIGQIFPALDSTYYNEMFKDKARFTVDKSSSTAYMQFSSLTSEDTAVYFCARSGPYSYYAGGYALDYWGQGTSVTVSS VL: DIQMTQSPASLSASVGETVTITCRTSENINSYLAWYQQKQGKSPQLLVHYAKTLAEGVPSRFSGSGSGTQFSLKINSLKPEDFGSYYCQHHYGTSLTFGAGTKLELKR
14 | binds | GO11 chimeric IgG, heavy chain point mutant VH-M34I (antibody, V domains shown, Heavy chain mutant paired with the parental chimeric light chain; IgG backbone, expressed in CHO-E) VH: QVHLQQSGPELVRPGTSVKISCEASGYIFLTYWINWVKQRPGQGLEWIGQIFPASDSTYYNEMFKDKARFTVDKSSSTAYMQFSSLTSEDTAVYFCARSGPYSYYAGGYALDYWGQGTSVTVSS VL: DIQMTQSPASLSASVGETVTITCRTSENINSYLAWYQQKQGKSPQLLVHYAKTLAEGVPSRFSGSGSGTQFSLKINSLKPEDFGSYYCQHHYGTSLTFGAGTKLELK
15 | binds | GO11 chimeric IgG, heavy chain point mutant VH-I28T (antibody, V domains shown, Heavy chain mutant paired with the parental chimeric light chain; IgG backbone, expressed in CHO-E) VH: QVHLQQSGPELVRPGTSVKISCEASGYTFLTYWMNWVKQRPGQGLEWIGQIFPASDSTYYNEMFKDKARFTVDKSSSTAYMQFSSLTSEDTAVYFCARSGPYSYYAGGYALDYWGQGTSVTVSS VL: DIQMTQSPASLSASVGETVTITCRTSENINSYLAWYQQKQGKSPQLLVHYAKTLAEGVPSRFSGSGSGTQFSLKINSLKPEDFGSYYCQHHYGTSLTFGAGTKLELK
16 | binds | GO11 chimeric IgG, heavy chain point mutant VH-T58A (antibody, V domains shown, Heavy chain mutant paired with the parental chimeric light chain; IgG backbone, expressed in CHO-E) VH: QVHLQQSGPELVRPGTSVKISCEASGYIFLTYWMNWVKQRPGQGLEWIGQIFPASDSAYYNEMFKDKARFTVDKSSSTAYMQFSSLTSEDTAVYFCARSGPYSYYAGGYALDYWGQGTSVTVSS VL: DIQMTQSPASLSASVGETVTITCRTSENINSYLAWYQQKQGKSPQLLVHYAKTLAEGVPSRFSGSGSGTQFSLKINSLKPEDFGSYYCQHHYGTSLTFGAGTKLELK
17 | binds | GO11 chimeric IgG, heavy chain point mutant VH-D66G (antibody, V domains shown, Heavy chain mutant paired with the parental chimeric light chain; IgG backbone, expressed in CHO-E) VH: QVHLQQSGPELVRPGTSVKISCEASGYIFLTYWMNWVKQRPGQGLEWIGQIFPASDSTYYNEMFKGKARFTVDKSSSTAYMQFSSLTSEDTAVYFCARSGPYSYYAGGYALDYWGQGTSVTVSS VL: DIQMTQSPASLSASVGETVTITCRTSENINSYLAWYQQKQGKSPQLLVHYAKTLAEGVPSRFSGSGSGTQFSLKINSLKPEDFGSYYCQHHYGTSLTFGAGTKLELK
